In US20070004636A1, “Method of degrading transcriptional factors of saccharometabolism-associated gene, method for inhibiting the degradation, and agent for inhibiting degradation and degradation inhibitor” (priority 2002, published 2007):

Key:
[1] = system: human HNF-1α; assay: in vitro protein degradation test of HNF-1α by calpain (Western blotting); type: biochemical; details: 1 hour at 37° C.
Experimental: Using the HNF-1α expression plasmid, in vitro synthesis of HNF-1α protein was carried out using the TNT T7 Quick Coupled Transcription/Translation System. That is, the HNF-1α expression plasmid was mixed with TNT T7 Quick Master Mix, and then incubated for 1.5 hours at 30° C. in the presence of methionine to synthesize HNF-1α. Thereafter, immunoprecipitation was conducted by adding anti-Xpress antibody to the synthesized HNF-1α, mixing by inversion for 1 hour at 4° C., and then adding Protein G Sepharose 4 Fast Flow and mixing by inversion for an additional 1 hour at 4° C. Subsequently, Protein G Sepharose was collected by centrifugation and washed 3 times with washing buffer (50 mM Tris-HCl, pH 7.5/150 mM NaCl/0.2% Nonidet P-40), followed by rinsing with 200 mM Tris-HCl (pH 7.8) to obtain the HNF-1α sample as 20% slurry (hereunder, referred to as “HNF-1α slurry”).
Protein degradation tests were carried out in vitro by adding μ-calpain or m-calpain to the HNF-1α slurry, and incubating for 1 hour at 37° C. in the presence of 200 mM Tris-HCl (pH 7.8)/1 mM DTT/6 mM CaCl2. The final concentrations of the respective calpain in the reaction system were as follows: 50 units/mL of human μ-calpain; 50 μg/mL of rabbit m-calpain as a protein concentration; and 59 units/mL of rat m-calpain. For a control experiment, an HNF-1α slurry was incubated without the addition of calpain in a similar manner in the presence of calcium. Further, to test for protein degradation in the absence of calcium, a sample was prepared by adding 10 mM of EDTA instead of 6 mM of CaCl2 and was incubated in the same manner. The samples after incubation were added to an equal volume of 2×SDS sample buffer, heated for 5 minutes, and then subjected to 5-20% SDS-PAGE for separation. Thereafter, Western blotting was carried out to detect HNF-1α using anti-Omni/M21 antibody (Santa Cruz Biotechnology, Inc.), which recognizes a His-Xpress region, and anti-HNF-1α antibody/HNF-1α (C-19) antibody (Santa Cruz Biotechnology, Inc.). An ECL Western blotting detection kit was used for conducting the detection.
In-vitro protein degradation tests were carried out in the same manner as in Example 7, but the lysate of sf-9 cells that coexpressed m-calpain with calpain small subunit 1 was used as m-calpain. The final concentration of the lysate of the sf-9 cells that expressed these proteins in the reaction system was 1.75 mg/mL as a protein concentration. The final concentration of rat m-calpain in the reaction system was 59 units/mL. Detection of HNF-1α was performed in the same manner as Example 7, but only anti-HNF-1α antibody/HNF-1α (C-19) antibody was used.

[2] = system: human IPF-1; assay: in vitro protein degradation test of IPF-1 by calpain (Western blotting); type: biochemical; details: 1 hour at 37° C.
Experimental: Using the IPF-1 expression plasmid, synthesis of IPF-1 protein was carried out in vitro using the TNT T7 Quick Coupled Transcription/Translation System. That is, the IPF-1 expression plasmid was mixed with TNT T7 Quick Master Mix, and then incubated for 1.5 hours at 30° C. in the presence of methionine to synthesize IPF-1.
Protein degradation tests were carried out in vitro by adding μ-calpain or m-calpain to IPF-1, and incubating for 1 hour at 37° C. in the presence of 200 mM Tris-HCl (pH 7.8)/1 mM DTT/6 mM CaCl2. The final concentrations of each calpain in the reaction systems were as follows: 50 units/mL of human μ-calpain; 50 μg/mL of rabbit m-calpain as a protein concentration, and 59 units/mL of rat m-calpain. For a control experiment, IPF-1 was incubated without addition of calpain in the same manner in the presence of calcium. Further, to test for protein degradation in the absence of calcium, a sample was prepared by adding 10 mM of EDTA instead of 6 mM of CaCl2, and incubated in the same manner. The samples after incubation were added to an equal volume of 2×SDS sample buffer, heated for 5 minutes, and subjected to 5-20% SDS-PAGE for separation. Thereafter, Western blotting was carried out to detect IPF-1 using anti-Xpress antibody and anti-IPF1 (PDX-1) antibody/N-18 (Santa Cruz Biotechnology, Inc.). The ECL Western blotting detection kit was used for conducting the detection.
In-vitro protein degradation tests were carried out in the same manner as Example 10, but the lysate of sf-9 cells that coexpressed m-calpain with calpain small subunit 1 was used as m-calpain. The final concentration of the lysate of sf-9 cells that expressed these proteins in the reaction system was 2.33 mg/mL as a protein concentration. The final concentration of rat m-calpain in the reaction system was 59 units/mL. Detection of IPF-1 was performed in the same manner as Example 10, but only anti-IPF-1 antibody/N-18 was used.

[3] = in the absence of calcium (10 mM EDTA instead of CaCl2)
[4] = in the presence of calcium (6 mM CaCl2), Western blotting

B1: human m-calpain: lysate of sf-9 insect cells coexpressing human m-calpain with calpain small subunit 1; FLAG-tagged, expressed in HEK293T cells, in Example 3 (protein, UniProt P17655 20-700; P04632 1-268, looked up)
Calpain-2 catalytic subunit: SHDRAIKYLNQDYEALRNECLEAGTLFQDPSFPAIPSALGFKELGPYSSKTRGIEWKRPTEICADPQFIIGGATRTDICQGALGDCWLLAAIASLTLNEEILARVVPLNQSFQENYAGIFHFQFWQYGEWVEVVVDDRLPTKDGELLFVHSAEGSEFWSALLEKAYAKINGCYEALSGGATTEGFEDFTGGIAEWYELKKPPPNLFKIIQKALQKGSLLGCSIDITSAADSEAITFQKLVKGHAYSVTGAEEVESNGSLQKLIRIRNPWGEVEWTGRWNDNCPSWNTIDPEERERLTRRHEDGEFWMSFSDFLRHYSRLEICNLTPDTLTSDTYKKWKLTKMDGNWRRGSTAGGCRNYPNTFWMNPQYLIKLEEEDEDEEDGESGCTFLVGLIQKHRRRQRKMGEDMHTIGFGIYEVPEELSGQTNIHLSKNFFLTNRARERSDTFINLREVLNRFKLPPGEYILVPSTFEPNKDGDFCIRVFSEKKADYQAVDDEIEANLEEFDISEDDIDDGFRRLFAQLAGEDAEISAFELQTILRRVLAKRQDIKSDGFSIETCKIMVDMLDSDGSGKLGLKEFYILWTKIQKYQKIYREIDVDRSGTMNSYEMRKALEEAGFKMPCQLHQVIVARFADDQLIIDFDNFVRCLVRLETLFKIFKQLDPENTGTIELDLISWLCFSVL
Calpain small subunit 1: MFLVNSFLKGGGGGGGGGGGLGGGLGNVLGGLISGAGGGGGGGGGGGGGGGGGGGGTAMRILGGVISAISEAAAQYNPEPPPPRTHYSNIEANESEEVRQFRRLFAQLAGDDMEVSATELMNILNKVVTRHPDLKTDGFGIDTCRSMVAVMDSDTTGKLGFEEFKYLWNNIKRWQAIYKQFDTDRSGTICSSELPGAFEAAGFHLNEHLYNMIIRRYSDESGNMDFDNFISCLVRLDAMFRAFKSLDKDGTGQIQVNIQEWLQLTMYS
modifications: FLAG tag
[1]; [3]
  degradation of HNF-1α: not observed
[1]; [4]
  degradation of HNF-1α: observed
[2]; [3]
  degradation of IPF-1: not observed
[2]; [4]
  degradation of IPF-1: observed
